Experimental data reported in paper PMC8750365.

Columns and labels:
[1] = target: Endogenous TOP1 of U2OS cells (human (endogenous in U2OS)) (UniProt P11387); assay: proximity ligation
[2] = target: Endogenous TOP2A of U2OS cells (human (endogenous in U2OS)) (UniProt P11388); assay: proximity ligation
Sequence of UniProt P11388 (P11388 whole entry): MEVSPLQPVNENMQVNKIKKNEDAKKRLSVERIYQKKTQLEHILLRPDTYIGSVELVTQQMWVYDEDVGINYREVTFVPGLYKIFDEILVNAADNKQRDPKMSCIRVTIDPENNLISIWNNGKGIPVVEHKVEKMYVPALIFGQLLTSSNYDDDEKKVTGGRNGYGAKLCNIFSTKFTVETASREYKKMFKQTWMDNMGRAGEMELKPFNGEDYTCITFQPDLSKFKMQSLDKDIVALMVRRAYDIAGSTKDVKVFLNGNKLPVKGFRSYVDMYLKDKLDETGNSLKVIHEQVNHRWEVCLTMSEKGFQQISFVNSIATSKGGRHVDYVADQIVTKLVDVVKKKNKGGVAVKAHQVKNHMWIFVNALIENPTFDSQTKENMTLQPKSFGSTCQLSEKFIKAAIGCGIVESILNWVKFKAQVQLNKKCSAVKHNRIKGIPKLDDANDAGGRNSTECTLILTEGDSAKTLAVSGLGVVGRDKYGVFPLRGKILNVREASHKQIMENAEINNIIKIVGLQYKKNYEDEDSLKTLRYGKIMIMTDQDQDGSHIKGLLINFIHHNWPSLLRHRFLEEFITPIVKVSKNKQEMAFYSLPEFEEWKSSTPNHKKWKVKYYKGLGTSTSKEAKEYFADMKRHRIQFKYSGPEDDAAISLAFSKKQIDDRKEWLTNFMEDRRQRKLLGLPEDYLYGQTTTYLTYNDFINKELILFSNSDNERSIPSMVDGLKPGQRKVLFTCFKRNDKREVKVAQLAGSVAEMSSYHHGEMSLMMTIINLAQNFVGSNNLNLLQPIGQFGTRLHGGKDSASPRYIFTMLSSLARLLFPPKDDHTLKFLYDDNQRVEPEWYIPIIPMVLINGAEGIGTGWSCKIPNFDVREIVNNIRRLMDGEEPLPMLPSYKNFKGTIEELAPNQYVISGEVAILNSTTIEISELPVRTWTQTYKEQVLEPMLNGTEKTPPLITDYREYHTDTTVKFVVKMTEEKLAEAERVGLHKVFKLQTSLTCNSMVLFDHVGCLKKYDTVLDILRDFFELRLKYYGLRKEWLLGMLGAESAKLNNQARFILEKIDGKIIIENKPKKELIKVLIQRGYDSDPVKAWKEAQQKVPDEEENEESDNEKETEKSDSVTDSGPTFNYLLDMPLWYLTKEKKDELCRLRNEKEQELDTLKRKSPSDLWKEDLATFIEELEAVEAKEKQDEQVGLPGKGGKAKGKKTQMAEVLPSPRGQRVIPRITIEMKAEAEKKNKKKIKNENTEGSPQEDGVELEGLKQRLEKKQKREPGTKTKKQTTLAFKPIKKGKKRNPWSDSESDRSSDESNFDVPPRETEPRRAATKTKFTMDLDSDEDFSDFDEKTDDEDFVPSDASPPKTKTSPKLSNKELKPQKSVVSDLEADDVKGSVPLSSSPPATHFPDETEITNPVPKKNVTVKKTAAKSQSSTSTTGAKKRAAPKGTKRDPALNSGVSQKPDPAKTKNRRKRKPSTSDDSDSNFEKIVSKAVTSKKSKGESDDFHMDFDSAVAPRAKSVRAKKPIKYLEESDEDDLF

Sequence of UniProt P11387 (P11387 whole entry): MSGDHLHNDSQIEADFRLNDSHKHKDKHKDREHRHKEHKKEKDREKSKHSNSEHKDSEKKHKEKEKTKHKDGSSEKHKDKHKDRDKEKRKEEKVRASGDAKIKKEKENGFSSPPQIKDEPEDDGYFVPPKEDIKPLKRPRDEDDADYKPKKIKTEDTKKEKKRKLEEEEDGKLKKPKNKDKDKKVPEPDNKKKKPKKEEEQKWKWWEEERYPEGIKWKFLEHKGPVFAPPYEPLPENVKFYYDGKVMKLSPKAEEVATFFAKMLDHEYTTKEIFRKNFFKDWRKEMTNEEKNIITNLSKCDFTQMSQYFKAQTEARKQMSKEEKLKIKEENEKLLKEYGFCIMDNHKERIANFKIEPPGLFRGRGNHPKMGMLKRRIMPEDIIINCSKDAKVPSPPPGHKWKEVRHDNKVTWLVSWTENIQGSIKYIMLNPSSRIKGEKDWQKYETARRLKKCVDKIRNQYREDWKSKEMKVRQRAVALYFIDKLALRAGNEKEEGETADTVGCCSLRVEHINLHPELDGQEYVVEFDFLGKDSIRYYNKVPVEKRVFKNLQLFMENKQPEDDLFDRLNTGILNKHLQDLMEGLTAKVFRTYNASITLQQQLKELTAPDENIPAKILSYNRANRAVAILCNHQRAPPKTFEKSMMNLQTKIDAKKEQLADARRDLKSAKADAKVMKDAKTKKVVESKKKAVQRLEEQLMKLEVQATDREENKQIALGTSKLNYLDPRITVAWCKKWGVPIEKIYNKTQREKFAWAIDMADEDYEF

Row | PLA dots/cell (untreated cells) [1] [dots/cell] | PLA dots/cell (untreated cells) [2] [dots/cell] | PLA dots/cell (with Dox) [1] [dots/cell] | PLA dots/cell (with Dox) [2] [dots/cell] | Substance
1 | 60 | 60 |  |  | Endogenous MYC of U2OS cells (from UniProt P01106 1-454) (natural protein)
2 |  |  | > 80 | > 80 | MYC-EGFP, doxycycline-inducible, in U2OS-MYC-EGFP cells (from UniProt P01106 1-454) (natural protein)
